The conditions of this data set: Bacillus amyloliquefaciens, 25 °C, Urea, NMR, NaCl 1 M, whole UniProt chain shown.

One protein from FireProtDB (doi:10.1021/bi00123a006) can be followed below.

B1: Ribonuclease wild type, P00648 (protein)
chain: MMKMEGIALKKRLSWISVCLLVLVSAAGMLFSTAAKTETSSHKAHTEAQVINTFDGVADYLQTYHKLPDNYITKSEAQALGWVASKGNLADVAPGKSIGGDIFSNREGKLPGKSGRTWREADINYTSGFRNSDRILYSSDWLIYKTTDHYQTFTKIR
B1: the unfolding free energy by setting is: (pH 4.4, Sodium acetate 30 mM) 8.13 kcal/mol; (pH 8.9, Tris 30 mM) 8.05 kcal/mol.
